Measurements published in the RNAGym collection of RNA variant scans (doi:10.1093/nar/gkz1192).

B1: CPEB3 Ribozyme (parent)
chain: UAACAGGGGGCCACAGCAGAAGCGUUCACGUCGCAGCCCCUGUCAGAUUCUGGUGAAUCUGCGAAUUCUGCUGUAUAUCUC

Variants of: B1
Assay: self-cleavage, relative activity (ratio to wild type); higher = more cleavage; in vitro, sequencing
In short: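 After error-prone PCR and barcoding, CPEB3 ribozyme mutant libraries were transcribed with T7 RNA polymerase at 37°C for 5 hours, then given 15 min with DNase I before an EDTA stop, and they cleaved during both steps. Reverse transcription with template switching preceded Illumina sequencing. Relative activity divides a variant's cleaved/total read fraction by the unmutated ribozyme's. At least 5 reads were required per variant, and three batches were averaged.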

First: A64G U78G
Second: A64G U78C
The self-cleavage of the first is higher: 1.11 for the first, 0.77 for the second.

Going from A64U A65C to A64U A65U, the self-cleavage rises from 0.13 to 0.37.

First: A64U A65G
Second: A64U U72C
The self-cleavage of the first is lower: 0.25 for the first, 0.5 for the second.

First: A64U U72G
Second: A64U U72A
The self-cleavage of the first is higher: 0.37 for the first, 0.35 for the second.

Going from G63C U67C to G63C U67A, the self-cleavage falls from 0.31 to 0.25.

First: A64U G73A
Second: A64U G73C
The self-cleavage of the first is higher: 0.98 for the first, 0.67 for the second.

Compared with G63A A75G, G63A A75U is higher in self-cleavage: 0.49 for the first, 0.84 for the second.

First: A64G C71U
Second: A64G C71G
The self-cleavage of the first is higher: 0.34 for the first, 0.31 for the second.

Compared with U66A U78A, U66A U78C is lower in self-cleavage: 0.38 for the first, 0.31 for the second.

Compared with G63A U66A, G63A U66C is higher in self-cleavage: 0.4 for the first, 0.45 for the second.

Going from A64C to A64G, the self-cleavage rises from 0.29 to 0.93.

Compared with A64U, G63A U69A is higher in self-cleavage: 0.32 for the first, 0.5 for the second.

First: G63A U69C
Second: A64C U66C
The self-cleavage of the first is higher: 0.61 for the first, 0.24 for the second.

Compared with U67A U76C, U67A U76A is higher in self-cleavage: 0.58 for the first, 0.68 for the second.

Compared with G63A U76A, A65G C79G is lower in self-cleavage: 0.82 for the first, 0.74 for the second.

Going from A65G C79A to A64C U72C, the self-cleavage falls from 0.67 to 0.48.

First: A64C U72A
Second: A65U A77U
The self-cleavage of the first is higher: 0.27 for the first, 0.25 for the second.

Compared with A65U A77G, U67A U74C is higher in self-cleavage: 0.2 for the first, 0.92 for the second.

Compared with U67A U74G, U67A U74A is lower in self-cleavage: 0.81 for the first, 0.8 for the second.

Going from G63U U80A to G63U U80C, the self-cleavage rises from 0.98 to 1.11.

Going from A65U U74A to U67A U72A, the self-cleavage falls from 0.44 to 0.38.

First: U67A U72G
Second: U67A U72C
The self-cleavage of the first is lower: 0.35 for the first, 0.49 for the second.

Going from U66C U80G to U66C U80A, the self-cleavage falls from 0.49 to 0.48.

Going from U66C U80C to A65C U72C, the self-cleavage falls from 0.45 to 0.35.

Going from A65C U72A to U67A A75G, the self-cleavage rises from 0.27 to 0.54.

Compared with U67A A75U, A64U U66G is lower in self-cleavage: 0.65 for the first, 0.13 for the second.

Compared with A64U U66C, A64U U66A is lower in self-cleavage: 0.31 for the first, 0.27 for the second.

Going from A64U U76C to A64U U76A, the self-cleavage falls from 0.4 to 0.32.

First: A64U U76G
Second: G63A C81U
The self-cleavage of the first is lower: 0.24 for the first, 1.07 for the second.

Compared with U66C U78C, U66C U78A is higher in self-cleavage: 0.36 for the first, 0.43 for the second.

Compared with U66A U74A, U66A U74C is higher in self-cleavage: 0.85 for the first, 0.86 for the second.

Going from U66A U74G to U66G G70A, the self-cleavage falls from 0.59 to 0.27.

Compared with A64U C68A, U66A U72A is higher in self-cleavage: 0.37 for the first, 0.58 for the second.

Going from U66A U72C to U66A U76C, the self-cleavage falls from 0.59 to 0.57.

Compared with G63U A65U, G63U A65G is lower in self-cleavage: 0.51 for the first, 0.5 for the second.

First: G63U U67A
Second: G63U U67C
The self-cleavage of the first is higher: 0.58 for the first, 0.29 for the second.

Going from A65C U74C to A64G C81A, the self-cleavage rises from 0.3 to 1.02.

First: A64G C81G
Second: A64G C81U
The self-cleavage of the first is higher: 1.03 for the first, 0.91 for the second.

Compared with U66C A75C, U66C A75G is lower in self-cleavage: 0.54 for the first, 0.28 for the second.

Compared with U66C A75U, A65U U72A is lower in self-cleavage: 0.4 for the first, 0.23 for the second.

Compared with A65U U72G, A65U U72C is higher in self-cleavage: 0.33 for the first, 0.36 for the second.

For U66A U67A, the self-cleavage was 0.26.
